Assay results taken from US20240033318A1 (OHIO STATE INNOVATION FOUNDATION, published 2024).
Non-standard residues stand in square brackets, D forms with d. Primed or numbered codes have the meaning given here. No end group written: not given here. *: point of attachment. FITC′ = fluorescein isothiocyanate (fluorescein label attached to the Lys side chain); FITC″ = fluorescein isothiocyanate, fluorescein thiocarbamoyl on Lys NZ; FITC = O=C1OC2(c3ccc(O)cc3Oc3cc(O)ccc32)c2ccc(NC(=S)*)cc21; Benzoyl(2,3-Cl2) = O=C(c1cccc(Cl)c1Cl)*; Phe(4-F) = N[C@@H](Cc1ccc(F)cc1)C(=O)O; Tle = CC(C)(C)[C@H](N)C(=O)O; acyl = not defined here; Bz = O=C(c1ccccc1)*; βAla = NCCC(=O)O

Assays:
[1] = target: T1, calcineurin expressed as the glutathione S-transferase fusion protein (GST-CN) (UniProt Q08209 2-347); experiment: fluorescence anisotropy (FA), direct binding of FITC-labeled peptide to GST-CN
T1 construct: also called CN-GST; recombinant GST-CN; not shown: glutathione S-transferase (GST) fusion partner
Protocol: (§1) Fluorescence Polarization. Fluorescence polarization (FP) experiments were carried out to measure binding affinity in both direct and competitive binding experiments using GST-CN and peptides prepared as mentioned previously. […] Solutions were incubated for 1 h at RT with gentle mixing and then pipetted into black 384-well microplates. Fluorescence polarization was measured on a TECAN Infinite M1000 plate reader and titration curves were fitted using both KaelidaGraph v 3.6 and GraphPad PRISM to the equation: […]

[2] = target: T1, calcineurin expressed as the …; experiment: FP competition: 15 nM FITC-labeled compound 35 as probe, 15 nM GST-CN, unlabeled inhibitor titrated
Protocol: (§2) Serial dilutions of unlabeled inhibitor were prepared in pH 7.4 PBS containing 0.01% Triton-X100, to which was added the incubation solution and mixed for 1 h at RT. 20 μL aliquots from each concentration were added into 384-well black-on-black microplates and fluorescence polarization was measured using a TECAN Infinite M1000 plate reader. IC50 values were calculated using GraphPad PRISM v. 7.

[3] = target: T1, calcineurin expressed as the …; experiment: FP competition with FITC-labeled compound 35 for GST-CN
Protocol: as §2

[4] = target: T1, calcineurin expressed as the …; experiment: FA-based competition (FP): 50 nM FITC-labeled peptide 14 as probe, 100 nM GST-CN, competitor titrated
Protocol: (§3) Serial dilutions of competitor peptides were prepared in PBS with 0.01% Trition-X100 and then added to the incubation solution and equilibrated at RT with gentle mixing for 1 h. Samples were pipetted into 384-well black microplates and FP signal was measured using a TECAN Infinite M1000 plate reader and analyzed using GraphPad PRISM v.6.

[5] = target: T1, calcineurin expressed as the …; experiment: FP competition (Condition E): 50 nM probe, 50 nM CN-GST, unlabeled compound titrated
Protocol: Binding Affinity. […] Serial dilutions of each unlabeled compound were prepared in pH 7.4 PBS containing 0.01% Triton-X100, to which was added the incubation solution and mixed for 1 hr at RT after which 20 μL sample was pipetted into 384-well black-on-black microplates and fluorescence polarization was measured using a TECAN Infinite M1000 plate reader. IC₅₀ values were calculated using GraphPad PRISM v.

[6] = target: T1, calcineurin expressed as the …; experiment: fluorescence anisotropy (FA), direct binding
[7] = target: T1, calcineurin expressed as the …; experiment: fluorescence anisotropy (FA), direct binding of FITC-labeled peptide
Protocol: as §1
(§4) Additional characterization of CNI95 (including in vivo evaluation) is currently ongoing.

[8] = target: T1, calcineurin expressed as the …; experiment: direct binding by FA
Protocol: as §1

[9] = target: T1, calcineurin expressed as the …; experiment: FA-based competition assay, inhibition of the binding of peptide 14 to CN
Protocol: as §3, §4

mouse plasma proteins = experiment: rapid equilibrium dialysis (RED) of CNI103 in mouse plasma, 37° C., 5 hours, LC/MS/MS

T1 sequence (Q08209 2-347): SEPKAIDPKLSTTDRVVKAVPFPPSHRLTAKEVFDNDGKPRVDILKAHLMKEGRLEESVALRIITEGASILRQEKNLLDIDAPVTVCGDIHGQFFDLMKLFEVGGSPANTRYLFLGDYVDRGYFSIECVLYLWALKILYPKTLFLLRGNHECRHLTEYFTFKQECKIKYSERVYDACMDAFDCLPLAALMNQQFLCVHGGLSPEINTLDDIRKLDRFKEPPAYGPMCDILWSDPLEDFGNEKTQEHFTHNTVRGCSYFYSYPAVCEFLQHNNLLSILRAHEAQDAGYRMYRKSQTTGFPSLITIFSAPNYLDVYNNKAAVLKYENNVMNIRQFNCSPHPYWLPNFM

B1: peptide 9: Dcb-ZIZITGPHEEYK(FITC)-NH2 (peptide)
peptide: {Benzoyl(2,3-Cl2)}-[Tle]I[Tle]ITGPHEEYK(FITC″)-NH2
Kd [1]: 41 nM

B2: compound 46: (DCNA)-Tle-Ile-Psa-Ile-Thr-Gln-His-(D-Leu)-Ser-miniPEG-Lys{[cyclo-(Gln-(D-Arg)-Arg-(D-Arg)-Arg-(2-Nal)-(D-Phe)]}-NH2 (peptide)
peptide: XIXITQHLSKQRRRRXF
modifications: not fully specified; N-terminal DCNA; Tle; Psa = L-penicillamine sulfonic acid; D-Leu; miniPEG; Lys side chain carrying cyclo-(Gln-(D-Arg)-Arg-(D-Arg)-Arg-(2-Nal)-(D-Phe)); C-terminal amide
IC50 [2]: 107 nM

B3: peptide 2: benzoyl-ZIZITGPHEEYK(FITC)-NH2 (peptide)
peptide: Bz-[Tle]I[Tle]ITGPHEEYK(FITC″)-NH2
Kd [1]: 224 nM

B4: peptide 8: acyl-ZIZITGPHEEYK(FITC)-NH2 (peptide)
peptide: acyl-[Tle]I[Tle]ITGPHEEYK(FITC″)-NH2
modifications: reading uncertain; also: N-terminal acyl: halogenated and/or alkylated benzoyl, not named, printed as peptide 8: acyl-ZIZITGPHEEYK(FITC)-NH2
Kd [1]: 74 nM

B5: compound 44 (CNI104): (DCNA)-Tle-Chg-Bhv-Ile-Thr-Gln-His-(D-Leu)-Ser-βAla-Lys{[cyclo-(Gln-(D-Arg)-Arg-(D-Arg)-Arg-(2-Nal)-(D-Phe)]}-NH2 (peptide)
peptide: XXXITQHLSXKQRRRRXF
modifications: not fully specified; N-terminal DCNA (2,3-dichlorisonicotinamide); Tle; Chg = L-cyclohexylglycine; Bhv = L-β-hydroxyvaline; D-Leu; βAla; Lys side chain carrying cyclo-(Gln-(D-Arg)-Arg-(D-Arg)-Arg-(2-Nal)-(D-Phe)); C-terminal amide
fold higher potency (relative to CNI103) [3]: ~5 fold | IC50 [2]: 44.9 nM

B6: peptide 4: cyclohexylcarbonyl-ZIZITGPHEEYK(FITC)-NH2 (peptide)
peptide: cyclohexylcarbonyl-[Tle]I[Tle]ITGPHEEYK(FITC″)-NH2
Kd [1]: 207 nM

B7: CNI88 (peptide)
peptide: XIXITYEXGAKFXRRRRQ
modifications: not fully specified; sequence of peptide 13 (Dcb-ZIZIT-Tyr-glu-Fpa-Gly) with cyclic CPP9, cyclo(fΦRrRrQ), attached to the C-terminus through an amide bond and a βAla-Lys linker; Z = Tle; D-Glu; Fpa = …
IC50 [4]: 426 nM

B8: compound 51: (DFNA)-Tle-Chg-Psa-Ile-Thr-Gln-His-(D-Leu)-Ser-miniPEG-Lys{[cyclo-(Gln-(D-Arg)-Arg-(D-Arg)-Arg-(2-Nal)-(D-Phe)]}-NH2 (peptide)
peptide: XXXITQHLSKQRRRRXF
modifications: not fully specified; N-terminal DFNA (2,3-difluoroisonicotinamide); Tle; Chg = L-cyclohexylglycine; Psa = L-penicillamine sulfonic acid; D-Leu; miniPEG; Lys side chain carrying cyclo-(Gln-(D-Arg)-Arg-(D-Arg)-Arg-(2-Nal)-(D-Phe)); C-terminal amide
IC50 [2]: 96.5 nM

B9: peptide 13: Dcb-ZIZIT-Tyr-glu-Fpa-Gly-βAla-Lys (FITC) (peptide)
peptide: {Benzoyl(2,3-Cl2)}-[Tle]I[Tle]ITY[dE][Phe(4-F)]G[βAla]K(FITC)
Kd [1]: 12 nM

B10: peptide 7: acyl-ZIZITGPHEEYK(FITC)-NH2 (peptide)
peptide: acyl-[Tle]I[Tle]ITGPHEEYK(FITC″)-NH2
modifications: reading uncertain; also: N-terminal acyl: halogenated and/or alkylated benzoyl, not named, printed as peptide 7: acyl-ZIZITGPHEEYK(FITC)-NH2
Kd [1]: 32 nM

B11: control: (DCB)-Tle-Ile-Tle-Ile-Thr-Gln-His-(D-Leu)-Ser-(β-Ala)-Lys{[cyclo-(Gln-(D-Arg)-Arg-(D-Arg)-Arg-(2-Nal)-(D-Phe)]}-NH2 (peptide)
peptide: XIXITQHLSXKQRRRRXF
modifications: not fully specified; N-terminal DCB (2,3-dichlorobenzoyl); Tle at 1 and 3; D-Leu; β-Ala; Lys side chain carrying cyclo-(Gln-(D-Arg)-Arg-(D-Arg)-Arg-(2-Nal)-(D-Phe)); C-terminal amide
notes: It is therefore kept as a separate molecule
IC50 [5]: 857 nM

B12: peptide 12: Dcb-ZIZIT-miniPEG-Lys (FITC) (peptide)
peptide: {Benzoyl(2,3-Cl2)}-[Tle]I[Tle]IT[miniPEG]K(FITC′)
fold decrease in binding affinity (relative to peptide 9) [6]: 17 fold | Kd [1]: 700 nM

B13: CNI95 labeled at the C-terminus with FITC (peptide)
peptide: XIXITQHLSKFXRRRRQ
modifications: not fully specified; sequence of peptide 14 (Dcb-ZIZIT-Gln-His-leu-Ser) conjugated to CPP9, cyclo(fΦRrRrQ), through a miniPEG-Lys linker; FITC at the C-terminus; Z = Tle; D-Leu
notes: also called FITC-labeled CNI95
Kd [7]: 17 nM

B14: compound 45: (DCNA)-Tle-Chg-Bhv-Ile-Thr-Gln-His-(D-Leu)-Ser-miniPEG-Lys{[cyclo-(Gln-(D-Arg)-Arg-(D-Arg)-Arg-(2-Nal)-(D-Phe)]}-NH2 (peptide)
peptide: XXXITQHLSKQRRRRXF
modifications: not fully specified; N-terminal DCNA; Tle; Chg = L-cyclohexylglycine; Bhv = L-β-hydroxyvaline; D-Leu; miniPEG; Lys side chain carrying cyclo-(Gln-(D-Arg)-Arg-(D-Arg)-Arg-(2-Nal)-(D-Phe)); C-terminal amide
IC50 [2]: 45.6 nM

B15: peptide 11: acyl-ZIZITGPHEEYK(FITC)-NH2 (peptide)
peptide: [Tle]I[Tle]ITGPHEEYK(FITC)-NH2
modifications: not fully specified (N-terminus); printed as acyl-ZIZITGPHEEYK(FITC)-NH2; also: N-terminal acyl group unspecified (halogenated/alkylated benzoyl, drawing only)
Kd [1]: 77 nM

B16: compound 48: (DFNA)-Tle-Ile-Bhv-Ile-Thr-Gln-His-(D-Leu)-Ser-miniPEG-Lys{[cyclo-(Gln-(D-Arg)-Arg-(D-Arg)-Arg-(2-Nal)-(D-Phe)]}-NH2 (peptide)
peptide: XIXITQHLSKQRRRRXF
modifications: not fully specified; N-terminal DFNA (2,3-difluoroisonicotinamide); Tle; Bhv = L-β-hydroxyvaline; D-Leu; miniPEG; Lys side chain carrying cyclo-(Gln-(D-Arg)-Arg-(D-Arg)-Arg-(2-Nal)-(D-Phe)); C-terminal amide
IC50 [2]: 73.5 nM

B17: CNI93 (peptide)
peptide: XIXITQHLSXKFXRRRRQ
modifications: not fully specified; sequence of peptide 14 (Dcb-ZIZIT-Gln-His-leu-Ser) with cyclic CPP9, cyclo(fΦRrRrQ), attached to the C-terminus through an amide bond and a βAla-Lys linker; Z = Tle; D-Leu
notes: A biotinylated form was used in the macrophage experiment
IC50 [4]: 127 nM | fold lower CN-binding affinity (relative to peptide 14) [8]: 8 fold

B18: peptide 14: Dcb-ZIZIT-Gln-His-leu-Ser-βAla-Lys (FITC) (peptide)
peptide: {Benzoyl(2,3-Cl2)}-[Tle]I[Tle]ITQH[dL]S[βAla]K(FITC″)
notes: also called FITC-labeled peptide 14
Kd [1]: 9.1 nM

B19: peptide 15: Dcb-ZIZIT-Gln-His-leu-His-βAla-Lys (FITC) (peptide)
peptide: {Benzoyl(2,3-Cl2)}-[Tle]I[Tle]ITQH[dL]H[βAla]K(FITC″)
Kd [1]: 4.7 nM

B20: CNI101: (DCNA)-Tle-Ile-Tle-Ile-Thr-Gln-His-(D-Leu)-Ser-miniPEG-Lys{[cyclo-(Gln-(D-Arg)-Arg-(D-Arg)-Arg-(2-Nal)-(D-Phe)]}-NH2 (peptide)
peptide: XIXITQHLSKQRRRRXF
modifications: not fully specified; N-terminal DCNA (2,3-dichlorisonicotinamide; Table 8 prints DCN, 2,3-dichloro-4-pyridinyl); Tle at 1 and 3; D-Leu; miniPEG; Lys side chain carrying cyclo-(Gln-(D-Arg)-Arg-(D-Arg)-Arg-(2-Nal)-(D-Phe)); C-terminal amide
notes: also called compound 41; 41
IC50 [5]: 184 nM | IC50 [2]: 184 nM

B21: peptide 1: Ac-GPHPZIZITGPHEEYK(FITC)-NH2 (peptide)
peptide: Ac-GPHP[Tle]I[Tle]ITGPHEEYK(FITC″)-NH2
Kd [1]: 92 nM

B22: peptide 10: acyl-ZIZITGPHEEYK(FITC)-NH2 (peptide)
peptide: [Tle]I[Tle]ITGPHEEYK(FITC)-NH2
modifications: not fully specified (N-terminus); printed as acyl-ZIZITGPHEEYK(FITC)-NH2; also: N-terminal acyl group unspecified (halogenated/alkylated benzoyl, drawing only)
Kd [1]: 189 nM

B23: CNI95 (unlabeled) (peptide)
peptide: XIXITQHLSKFXRRRRQ
modifications: not fully specified; sequence of peptide 14 (Dcb-ZIZIT-Gln-His-leu-Ser) conjugated to CPP9, cyclo(fΦRrRrQ), through a miniPEG-Lys linker; Z = Tle; D-Leu
fold higher potency (relative to CNI93) [9]: ~5 fold

B24: CNI103: (DCNA)-Tle-Ile-Bhv-Ile-Thr-Gln-His-(D-Leu)-Ser-miniPEG-Lys{[cyclo-(Gln-(D-Arg)-Arg-(D-Arg)-Arg-(2-Nal)-(D-Phe)]}-NH2 (peptide)
peptide: XIXITQHLSKQRRRRXF
modifications: not fully specified; N-terminal DCNA (2,3-dichlorisonicotinamide; Table 8 prints DCN); Tle at 1; Bhv = L-β-hydroxyvaline at 3 (Table 8 prints Hva); D-Leu; miniPEG; Lys side chain carrying cyclo-(Gln-(D-Arg)-Arg-(D-Arg)-Arg-(2-Nal)-(D-Phe)); C-terminal amide
notes: also called CN103; compound 43
% Binding (mouse plasma proteins): 97.6% | IC50 [5]: 223 nM | IC50 [2]: 223 nM

B25: peptide 3: cyclopentylcarbonyl-ZIZITGPHEEYK(FITC)-NH2 (peptide)
peptide: cyclopentylcarbonyl-[Tle]I[Tle]ITGPHEEYK(FITC″)-NH2
Kd [1]: 357 nM
